From patent US20060257397A1 (CRUCELL HOLLAND B V, published 2006) come the findings set out here.

Changes are numbered by the printed parent chain.

One assay addresses T1, human CD1b (human, UniProt P29016 18-333).
T1 construct: whole, on cells; also called C1R-CD1b; CR1-CD1b
Put plainly: flow cytometry on C1R-CD1b transfectant. The procedure: (§1) The human anti-CD1a IgG1 antibodies were validated for their ability to bind to CD1a transfected cell lines essentially as described for scFvs (see Example 3). The purified anti-CD1a antibodies were diluted to various concentrations (depicted in the figures) and detected with mouse anti-human IgGκ labeled with FITC or FITC-labeled streptavidin in the case of biotinylated human anti-CD1a antibodies. In addition to the cell lines C1R-CD1a and C1R mock transfected described in Example 3, the cell lines C1R-CD1b , C1R-CD1c , C1R-CD1d and B16-CD1a and B16 mock transfected were tested. Each staining was repeated three times and compared to the negative control irrelevant isotype control antibody called CR2027 using the Kolmogorov-Simov test. To calculate K-S statistics, an overlay of histograms of isotype control antibody and anti-CD1a antibody was made. The log shift between the peaks of the histograms was determined and used to calculate the D-value. The greater the log shift of the anti-CD1a antibody response peak from the isotype control antibody response peak, the larger the D-value.
(§2) No specific staining of any of the six human anti-CD1a monoclonal antibodies was detected on the C1R-CD1b or C1R-CD1d transfectants (see FIG. 4). Slight, but significant, staining (p<0.05) was detected for the two antibodies CR2114 and CR2117 on C1R-CD1c transfectants (see FIG. 4). […] In addition, staining was also carried out on freshly prepared mouse thymocytes, which express murine […] at low levels.
(In general: In flow cytometry, cells or beads pass a laser one at a time.)

For a further assay, the target named is T2, human CD1d (human, UniProt P15813 20-335).
T2 construct: whole, on cells; also called C1R-CD1d; CR1-CD1d
T2 sequence (looked up): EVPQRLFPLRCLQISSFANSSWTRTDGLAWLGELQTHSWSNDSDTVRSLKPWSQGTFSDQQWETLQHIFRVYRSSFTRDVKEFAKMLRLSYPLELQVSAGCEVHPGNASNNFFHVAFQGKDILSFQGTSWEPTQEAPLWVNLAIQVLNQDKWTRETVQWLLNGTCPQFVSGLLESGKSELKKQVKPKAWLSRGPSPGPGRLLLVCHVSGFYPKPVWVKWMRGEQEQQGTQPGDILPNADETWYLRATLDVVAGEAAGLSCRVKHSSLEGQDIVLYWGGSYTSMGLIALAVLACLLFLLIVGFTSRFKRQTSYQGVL
Nature of the assay: flow cytometry on C1R-CD1d transfectant. The protocol: as §1, §2

Assay [1] addresses T3, murine CD1d (mouse, UniProt P11609 22-336).
T3 construct: whole, on cells; also called mouse thymocytes
T3 sequence (looked up): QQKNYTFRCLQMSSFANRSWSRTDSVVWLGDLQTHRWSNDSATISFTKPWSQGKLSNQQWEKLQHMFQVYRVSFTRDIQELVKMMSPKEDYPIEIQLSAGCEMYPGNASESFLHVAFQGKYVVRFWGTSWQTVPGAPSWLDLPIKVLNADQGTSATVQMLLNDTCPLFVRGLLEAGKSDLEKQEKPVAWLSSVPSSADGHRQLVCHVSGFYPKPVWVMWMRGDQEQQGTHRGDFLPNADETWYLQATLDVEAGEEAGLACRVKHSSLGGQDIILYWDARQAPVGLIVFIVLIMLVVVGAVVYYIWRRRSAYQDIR
Nature of the assay: flow cytometry on freshly prepared mouse thymocytes.

In assay [2] the target is T3, murine CD1d. Nature of the assay: flow cytometry on mouse thymocytes, K-S statistics against isotype control. The procedure:
as §1, §2

The target of a further assay is T4, human CD1c (human, UniProt P29017 18-333).
T4 construct: whole, on cells; also called C1R-CD1c; CR1-CD1c
T4 sequence (looked up): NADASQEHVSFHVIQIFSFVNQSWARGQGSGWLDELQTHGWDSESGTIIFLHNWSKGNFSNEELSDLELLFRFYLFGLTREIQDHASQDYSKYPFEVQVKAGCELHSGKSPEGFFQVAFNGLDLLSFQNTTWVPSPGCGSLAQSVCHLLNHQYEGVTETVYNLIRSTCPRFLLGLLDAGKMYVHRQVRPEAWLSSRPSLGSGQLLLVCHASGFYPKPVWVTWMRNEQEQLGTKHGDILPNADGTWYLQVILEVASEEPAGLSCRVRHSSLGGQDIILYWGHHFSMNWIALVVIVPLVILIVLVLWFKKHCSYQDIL
Nature of the assay: flow cytometry on C1R-CD1c transfectant. The procedure:
as §1
No specific staining of any of the six human anti-CD1a monoclonal antibodies was detected on the C1R-CD1b or C1R-CD1d transfectants (see FIG. 4). Slight, but significant, staining (p<0.05) was detected for the two antibodies CR2114 and CR2117 on C1R-CD1c transfectants (see FIG. 4). […]

The target of another assay is T5, murine CD1a (mouse).
T5 construct: whole, on cells; no such UniProt entry is known to me (mice are known to carry only CD1d genes); also called mouse thymocytes
Put plainly: flow cytometry on mouse thymocytes, K-S statistics against isotype control. The protocol: as §1, §2

Assay [3] addresses T6, human CD1a (human, UniProt P06126 17-327).
T6 construct: whole, on cells; also called C1R-CD1a; CR1-CD1a
Put plainly: flow cytometry on B16-CD1a transfectants, biotinylated antibody detected with FITC-labeled streptavidin; D-value versus isotype control CR2027. The protocol: as §1
(§3) Binding curves were generated for the antibodies CR2113, CR2114, CR2117 and CR2118 by measuring binding on B16-CD1a transfected cells with FACS as above using the concentrations of antibody ranging from 0.01 to 10 μg/ml. […]

Assay [4] addresses T6, human CD1a. Nature of the assay: flow cytometry on B16-CD1a transfectants, unlabeled antibody detected with FITC-labeled mouse anti-human IgG kappa; D-value versus isotype control CR2027. The procedure: as §1, §3
Assay [5] concerns the target T6, human CD1a. Put plainly: competition flow cytometry on B16-CD1a cells: unlabeled antibody for 30 min, then biotin-labeled CR2113 at 2.5 µg/ml, FITC-streptavidin. The procedure: (§4) B16 mouse melanoma cells expressing human CD1a were stained with unlabeled CR2113, CR2114, CR2117, CR2118 or the negative control CR2027 at different concentrations (0.1, 0.3, 1, 3, 10, 30, 50, 100 μg/ml) for 30 minutes and then stained with one of the above antibodies labeled with biotin as described above for five minutes at a concentration of 2.5 μg/ml. Detection was by FITC-labeled streptavidin incubated for 20 minutes. Furthermore, staining was performed as described above (see Example 3). Each staining was done three successive times and the D-value calculated with K-S statistics (see above). The staining of unlabeled control antibody CR2027 is shown by the dotted line staining using the test antibody is depicted with a solid line. CR2113 was able to compete with itself in a dose dependent manner, however none of the other antibodies could compete with biotinylated CR2113 for binding (see FIG. 6A). […] In contrast, unlabeled CR2113 was able to compete for binding of CR2114 (see FIG. 6B), CR2117 (see FIG. 6C) and CR2118 (see FIG. 6D) to B16-CD1a transfectants in a concentration dependent manner. Neither CR2117 nor CR2118 was able to compete with CR2114 for binding to CD1a. This could be due to sub-optimal affinity.

Assay [6] deals with T6, human CD1a. Nature of the assay: competition flow cytometry on B16-CD1a cells: unlabeled antibody for 30 min, then biotin-labeled CR2114 at 2.5 µg/ml, FITC-streptavidin. The protocol: as §4
Assay [7] concerns the target T6, human CD1a. Put plainly: competition flow cytometry on B16-CD1a cells: unlabeled antibody for 30 min, then biotin-labeled CR2118 at 2.5 µg/ml, FITC-streptavidin. The procedure:
as §4

T6 sequence (P06126 17-327): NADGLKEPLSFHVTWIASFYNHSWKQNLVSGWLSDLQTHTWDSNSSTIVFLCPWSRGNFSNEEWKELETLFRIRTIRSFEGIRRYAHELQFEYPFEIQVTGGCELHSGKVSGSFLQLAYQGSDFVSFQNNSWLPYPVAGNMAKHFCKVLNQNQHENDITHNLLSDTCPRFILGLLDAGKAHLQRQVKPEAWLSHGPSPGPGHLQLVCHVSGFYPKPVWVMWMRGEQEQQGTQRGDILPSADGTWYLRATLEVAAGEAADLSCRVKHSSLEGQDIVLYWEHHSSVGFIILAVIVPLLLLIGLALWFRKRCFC
T1 sequence (P29016 18-333): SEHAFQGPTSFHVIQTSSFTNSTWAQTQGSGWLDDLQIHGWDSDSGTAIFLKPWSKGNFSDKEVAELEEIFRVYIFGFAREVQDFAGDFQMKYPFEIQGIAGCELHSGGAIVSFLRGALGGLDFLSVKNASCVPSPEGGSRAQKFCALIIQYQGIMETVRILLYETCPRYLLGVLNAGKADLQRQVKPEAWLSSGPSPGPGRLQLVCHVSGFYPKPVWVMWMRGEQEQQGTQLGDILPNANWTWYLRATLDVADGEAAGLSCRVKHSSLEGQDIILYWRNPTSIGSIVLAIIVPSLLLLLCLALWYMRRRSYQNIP

B1: human anti-human CD1a monoclonal antibody CR2115 (antibody, human IgG1, V domains shown)
VH: QVQLVQSGAEAKKPGASVKVSCKASGYTFTGYYMHWVRQAPGQGLEWMGWISAYNGNTNYAQKLQGRVTMTTDTSTSTAYMELRSLRSDDTAVYYCARSQMPSYFDYWGQGTLVTVSS
VL: SSELTQDPAVSVALGQTVRITCQGDSLRSYYASWYQQKPGQAPVLVIYGKNNRPSGIPDRFSGSSSGNTASLTITGAQAEDEADYYCNSRDSSGNHVVFGGGTKLTVLG
notes: Fully human IgG1 lambda made from scFv SC02-115; also called 02-115
On to B1, for which the binding result with human CD1b, in the assay with human CD1d and with murine CD1d [1] was “no binding” in each case. In addition, the D-value with murine CD1d [2] was determined as 0.

B2: human anti-human CD1a monoclonal antibody CR2117 (antibody, human IgG1, kappa, V domains shown)
VH: EVQLVESGGGLVHPGGSLRLSCAGSGFTFSSYAMHWVRQAPGKGLEWVSAIGTGGGTYYADSVKGRFTISRDNAKNSLYLQMNSLRAEDTAVYYCARSTPWFSFDYWGQGTLVTVSS
VL: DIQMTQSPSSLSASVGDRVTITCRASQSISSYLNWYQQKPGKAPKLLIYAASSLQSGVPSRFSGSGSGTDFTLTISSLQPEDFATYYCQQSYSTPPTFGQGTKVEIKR
notes: Fully human IgG1 kappa made from scFv SC02-117; unlabeled or biotinylated; also called 02-117
Consider B2, for which the binding result with human CD1b was “no binding”; with human CD1c it was “binds”; in the assay with human CD1d, “no binding”; in the assay with murine CD1d [1], “no binding”. Besides, the D-value in the assay with murine CD1a and with murine CD1d [2] was 0 throughout. Further, the “EC50 (read off the curve)” value with human CD1a [3] is about 2 microgr/ml.

B3: human anti-human CD1a monoclonal antibody CR2118 (antibody, human IgG1, kappa, V domains shown)
VH: B2 VH with G52S, T99A, P100W, F102L, Y106S
VL: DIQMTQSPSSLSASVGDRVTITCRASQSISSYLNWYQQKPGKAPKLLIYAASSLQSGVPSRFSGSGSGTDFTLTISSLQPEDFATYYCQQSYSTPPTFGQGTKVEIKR
notes: Fully human IgG1 kappa made from scFv SC02-118; unlabeled or biotinylated; also called 02-118
For the molecule B3, the binding result in the assay with human CD1b is listed as “no binding”; with human CD1d, “no binding”; with murine CD1d [1] it was “no binding”; with human CD1a [4], “binds”. Further, the D-value with murine CD1a and with murine CD1d [2] was 0 in each case.

B4: human anti-human CD1a monoclonal antibody CR2113 (antibody, human IgG1, kappa, V domains shown)
VH: QVQLQESGAGLLKPSETLSLTCAVYGGSFSGYYWSWIRQPPGKGLEWIGYIYYSGSTNYNPSLKSRVTISVDTSKNQFSLKLSSVTAADTAVYYCAKAPYMMYFDSWGQGTLVTVSS
VL: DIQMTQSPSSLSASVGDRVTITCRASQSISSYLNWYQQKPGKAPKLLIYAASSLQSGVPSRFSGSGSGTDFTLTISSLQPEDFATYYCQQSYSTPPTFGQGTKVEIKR
notes: Fully human IgG1 kappa made from scFv SC02-113, expressed in 293T cells; Used unlabeled, biotinylated or Alexa488-labeled depending on the assay; also called 02-113
B4: the binding result in the assay with human CD1b, in the assay with human CD1d and with murine CD1d [1] was “no binding” throughout. For the same molecule, the D-value with murine CD1a and in the assay with murine CD1d [2] was 0 each time. In addition, the entries for the “IC50 (read off the curve)” value with human CD1a [5], in the assay with human CD1a [6] and with human CD1a [7] were about 3 µg/mL, about 0.5 µg/mL and about 0.6 µg/mL, respectively. The “EC50 (read off the curve)” value in the assay with human CD1a [3] is about 0.1 microgr/ml.

B5: human anti-human CD1a monoclonal antibody CR2114 (antibody, human IgG1, kappa, V domains shown)
VH: EVQLVESGGGLVQPGGSLRLSCAASGFTFSSYSMNWVRQAPGKGLEWVSYISSSSSTIYYADSVKGRFTISRDNAKNSLYLQMNSLRDEDTAVYYCAKETWWQSFDYWGQGTLVTVSS
VL: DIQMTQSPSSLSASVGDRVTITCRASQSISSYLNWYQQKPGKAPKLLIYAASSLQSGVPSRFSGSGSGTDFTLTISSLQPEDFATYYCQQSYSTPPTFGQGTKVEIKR
notes: Fully human IgG1 kappa made from scFv SC02-114; unlabeled or biotinylated; also called 02-114
For B5, the binding result with human CD1b is “no binding”; in the assay with human CD1c, “binds”; with human CD1d, “no binding”; with murine CD1d [1], “no binding”. Further, the D-value in the assay with murine CD1a and in the assay with murine CD1d [2] was 0 in each case.
